Data on three molecules can be found in patent US8623997B2, “Variant Hhip1 protein and methods and uses thereof” (Curis, Inc., priority 2008, dated 2014).

The target of one assay is T1, biotinylated-ShhN-Cys (Homo sapiens, UniProt Q15465).
T1 construct: ShhN-Cys (residues 24-197); His6 (N); made in house; host or cells: E. coli Rosetta 2
Nature of the assay: Bio-layer interferometry (Octet) binding kinetics of Hhip1β12 variants to Shh. Particulars: for Kd / koff × 10^−4 / kon × 10^3: 1:1 binding model, n.d stands for no binding detected. On the procedure: The binding kinetics of the Hhip1β12 fragments as well as Hhip1β12 mutants were measured by bio-layer interferometry in the presence or absence of 10 mM EDTA on an Octet (Fortébio). Streptavidin high binding FA biosensors were loaded with biotinylated-ShhN-Cys in kinetic buffer (Fortébio). The loaded biosensors were washed and transferred to wells containing Hhip1β12 protein at concentrations of 1.2, 1.0, 0.8 and 0.6 μM in kinetic buffer. Hhip1β12 association and dissociation was measured for 30 and 20 min, respectively. Kinetic parameters (kon and koff) and affinities (KD) were calculated from a non-linear fit of the data based on a 1:1 binding model between Hhip1β12 and Shh using the Octet software. Multiple independent measurements were performed.
In order to assess the contribution of residues in the Hhip1 L1, L2 and L3 loops for binding to Shh, a series of single alanine Hipβ12 mutants were made using the QuickChange DNA mutagenesis kit (Stratagene) using the manufacturer's protocol, and their affinity for Shh was measured by bio-layer interferometry (as described in Example 2B). These mutations included Hhip1β12 mutants 1312A, E381A, M382A, D383A, D378A, T418A, Q420A, E380A, D387A and ΔL2.

The test system of another assay is Shh signaling. Nature of the assay: Gli-luciferase co-culture signaling assay (S12 fibroblasts overlaid with Shh-producing HT29 cells). The assay is classed as cell-based, murine S12 fibroblasts / human HT29 cells. Particulars: Gli-luciferase co-culture; for IC50: 24 hrs, read-out: IC50 inhibition of Shh signaling. The text has this:
Due to the lack of both N- and C-terminal lipid modifications of Shh and the absence of other cellular components, the in vitro assays may not fully recapitulate Hip-Shh interactions occurring in a cellular environment. Therefore, a co-culture assay consisting of murine S12 fibroblasts stably transfected with a Gli luciferase reporter gene and (Frank-Kamenetsky et al. (2002) J. Biol. 1:10) and human colorectal adenocarcinoma HT29 cells that secrete fully lipid-modified Shh (Yauch et al. (2008) Nature 455:406) was used to determine which extracellular domains of Hhip1β12 mediate inhibition of Shh signaling in mammalian cells.
Briefly, S12 cells, which are 10T1/2 fibroblasts stably transfected with 8× Gli-binding sites fused to a luciferase reporter (Frank-Kamenetsky et al. (2002) J. Biol. 1:10), were plated at 10,000 cells/well of a white-walled clear bottomed 96-well plate (Costar 3610) for […] in regular growth medium (HG-DMEM, 10% FBS, 1% glutamine). After 24 h, the media was removed and Shh-producing HT29 cells at 20,000 cells/well were plated and the co-culture was grown in regular media. After 24 h, the media was changed to 0.5% serum HG-DMEM±Hhip1β12 fragments and further incubated for 24 hrs to stimulate signaling. Gli-luciferase activity was measured using a HTS-Steady Lite luciferase detection kit (Perkin Elmer); multiple assays were carried out, each in triplicate. Data were fit to a 4-parameter sigmoidal equation, from which the IC50 was derived using Kaleidagraph (Synergy Software).

B1: Hhip1β1: β-propeller-EGF1 construct (SEQ ID NO:13), residues 193-637 of SEQ ID NO:2 (protein, listed as Homo sapiens)
chain: SNYLDQMEEYDKVEEISRKHKHNCFCIQEVVSGLRQPVGALHSGDGSQRLFILEKEGYVKILTPEGEIFKEPYLDIHKLVQSGIKGGDERGLLSLAFHPNYKKNGKLYVSYTTNQERWAIGPHDHILRVVEYTVSRKNPHQVDLRTARVFLEVAELHRKHLGGQLLFGPDGFLYIILGDGMITLDDMEEMDGLSDFTGSVLRLDVDTDMCNVPYSIPRSNPHFNSTNQPPEVFAHGLHDPGRCAVDRHPTDININLTILCSDSNGKNRSSARILQIIKGKDYESEPSLLEFKPFSNGPLVGGFVYRGCQSERLYGSYVFGDRNGNFLTLQQSPVTKQWQEKPLCLGTSGSCRGYFSGHILGFGEDELGEVYILSSSKSMTQTHNGKLYKIVDPKRPLMPEECRATVQPAQTLTSECSRLCRNGYCTPTGKCCCSPGWEGDFCRTA
With B1, the “binding to Shh in the presence of EDTA” value with biotinylated-ShhN-Cys (10 mM EDTA) is reported as “completely abolished”. In addition, in the assay with biotinylated-ShhN-Cys, the Kd amounted to 150 nM, the “koff × 10^−4” value is 2.3 × 10^−4 [s^−1] and the “kon × 10^3” value was 1.5 × 10^3 [M^−1 × s^−1]. In addition, in the assay on Shh signaling, the “IC50 fold higher than Hhip1ECD” value is “about 4 fold” and the IC50 was determined as 20.3 nM.

B2: Hhip1ECD: Hhip1 extracellular domain construct (SEQ ID NO:11), residues 20-667 of SEQ ID NO:2 (protein, listed as Homo sapiens)
chain: SNYLDQMEEYDKVEEISRKHKHNCFCIQEVVSGLRQPVGALHSGDGSQRLFILEKEGYVKILTPEGEIFKEPYLDIHKLVQSGIKGGDERGLLSLAFHPNYKKNGKLYVSYTTNQERWAIGPHDHILRVVEYTVSRKNPHQVDLRTARVFLEVAELHRKHLGGQLLFGPDGFLYIILGDGMITLDDMEEMDGLSDFTGSVLRLDVDTDMCNVPYSIPRSNPHFNSTNQPPEVFAHGLHDPGRCAVDRHPTDININLTILCSDSNGKNRSSARILQIIKGKDYESEPSLLEFKPFSNGPLVGGFVYRGCQSERLYGSYVFGDRNGNFLTLQQSPVTKQWQEKPLCLGTSGSCRGYFSGHILGFGEDELGEVYILSSSKSMTQTHNGKLYKIVDPKRPLMPEECRATVQPAQTLTSECSRLCRNGYCTPTGKCCCSPGWEGDFCRTAKCEPACRHGGVCVRPNKCLCKKGYLGPQCE
Take B2: in the assay with biotinylated-ShhN-Cys, binding was put at a Kd of 67 nM, the “koff × 10^−4” value was 7.9 × 10^−4 [s^−1] and the “kon × 10^3” value is 1.2 × 10^3 [M^−1 × s^−1]. In the assay with Shh signaling, the IC50 was determined as 5.3 nM.

B3: E381A: L2 loop single alanine variant made in the Hhip1β12 construct (protein)
chain: SNYLDQMEEYDKVEEISRKHKHNCFCIQEVVSGLRQPVGALHSGDGSQRLFILEKEGYVKILTPEGEIFKEPYLDIHKLVQSGIKGGDERGLLSLAFHPNYKKNGKLYVSYTTNQERWAIGPHDHILRVVEYTVSRKNPHQVDLRTARVFLEVAELHRKHLGGQLLFGPDGFLYIILGDGMITLDDMEAMDGLSDFTGSVLRLDVDTDMCNVPYSIPRSNPHFNSTNQPPEVFAHGLHDPGRCAVDRHPTDININLTILCSDSNGKNRSSARILQIIKGKDYESEPSLLEFKPFSNGPLVGGFVYRGCQSERLYGSYVFGDRNGNFLTLQQSPVTKQWQEKPLCLGTSGSCRGYFSGHILGFGEDELGEVYILSSSKSMTQTHNGKLYKIVDPKRPLMPEECRATVQPAQTLTSECSRLCRNGYCTPTGKCCCSPGWEGDFCRTAKCEPACRHGGVCVRPNKCLCKKGYLGPQCEHHHHHH
Take B3: in the assay with biotinylated-ShhN-Cys, the Kd amounted to 300 nM, the “koff × 10^−4” value is 3.3 × 10^−4 [s^−1] and the “kon × 10^3” value is 1.1 × 10^3 [M^−1 × s^−1].

By Kd is commonly meant the constant that tells how readily two partners part at equilibrium. High values mean lower affinity, low ones higher affinity. As a reminder, the IC50 is the concentration that gives 50% inhibition.
